Measurements as given in the supplement of paper PMC10567573.

B1: FAM189A2 (parent)
chain: GSEAAVIPLDLGCTQVTQDGDIPN

Variants of: B1
Assay: protein stability index of a GFP-peptide fusion (GPS, HEK-293T) (PSI 1-6); higher = more stable
Conditions: c terminus: a fixed tail appended
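Further: lentivirally expressed fusions sorted by FACS into six bins by GFP to DsRed ratio, PSI derived from sequencing read proportions per bin multiplied by bin number.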

Protein stability index: each site, then its substitutions
T14: S 5.27; V 5.31; F 3.97; K 5.46; M 4.86; W 4.16; N 5.31; L 5.17; H 4.91; Q 5.57; Y 5.09; I 4.99; G 5.17; R 4.41; P 5.49
D19: K 5.19; E 5.34; S 4.62; I 4.3; A 5.36; Q 5.12; N 4.8; M 4.61; G 5.24; Y 4.47; L 4.78; C 4.4; P 5.06; R 4.57; F 4.46; W 4.37; H 4.91; V 4.77; T 5.25
Q18: R 5.09; N 4.68; L 5.25; D 5.63; F 4.26; T 5.02; S 5.54; E 5.38; W 4.67; H 5.22; K 5.17; V 4.92; M 4.83; C 5.27; P 5.18; G 5.49; Y 4.61; A 5.46; I 4.62
D21: P 4.77; M 4.05; V 4.94; Y 4.46; N 4.77; S 4.97; W 3.76; Q 4.92; F 3.95; I 4.45; K 5.48; E 5.03; T 4.97; R 4.69; G 5.27; L 4.52; A 5.07; C 4.71; H 4.38
G20: W 4.73; L 5.04; P 4.97; D 5.56; S 5.32; E 5.62; K 5.28; H 5.53; M 4.83; V 4.97; N 5.31; A 5.24; C 5.3; R 4.89; F 4.18; Q 4.75; I 5.29; T 5.41; Y 5.09
Q15: F 4.8; P 5.33; K 5.16; S 5.4; T 5.24; W 4.11; V 5.12; H 5.51; Y 4.5; M 5.27; L 4.12; A 5.45; C 5.31; N 5.75; D 5.23; R 4.17; E 5.77; I 4.72; G 5.46
T17: F 5; A 5.21; M 5.14; D 5.46; I 4.75; W 4.69; K 5.4; L 4.88; R 5.18; Y 4.87; C 5.19; H 5.17; G 5; N 5.19; P 5.44; S 5.5; Q 5.24; V 5.37; E 5.68
V16: T 5.53; A 4.95; L 5.06; P 5.52; K 5.09; G 5.14; C 5.31; N 5.62; D 5.66; Q 4.61; F 5.1; R 5; H 5.22; E 4.98; I 5.26; M 4.6; Y 5.05; S 4.88; W 4.67
I22: S 5.64; H 5.37; M 5.08; L 5.39; A 5.72; Y 5.26; K 5.65; C 5.67; V 5.54; F 5.15; N 5.25; R 5.22; D 5.64; T 5.58; P 5.37; Q 5.31; E 5.53; W 5.34; G 5.26
